The values below are quoted from earlier work in publication PMC6105697.

The data set deals with NKG2D (Homo sapiens) (UniProt P26718). The experiment in a line: surface plasmon resonance. Background: SPR reads the build-up and loss of mass on a sensor chip optically.
Chain of UniProt P26718 (P26718 whole entry): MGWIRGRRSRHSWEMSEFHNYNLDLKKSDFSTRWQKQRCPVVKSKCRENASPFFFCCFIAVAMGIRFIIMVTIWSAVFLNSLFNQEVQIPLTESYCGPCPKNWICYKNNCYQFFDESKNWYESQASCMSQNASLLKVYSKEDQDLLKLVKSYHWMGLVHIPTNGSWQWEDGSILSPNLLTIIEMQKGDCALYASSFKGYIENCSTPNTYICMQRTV

What is called Kd is the equilibrium constant for the complex coming apart. For ULBP0602 (from UniProt Q5VY80), the Kd is 15.5 nM.
